Data taken from the supplement of paper PMC9112550, “Optimization of the antimicrobial peptide Bac7 by deep mutational scanning” (BMC Biology, 2022).

Tested on: Escherichia coli TOP10
Test: shrunken log2 fold change of peptide-encoding DNA abundance (4.5 h post-induction vs induction); higher = less antimicrobial activity (less host growth inhibition)
Details: time post-induction: 4.5 h; library: site-saturation at positions 5, 18, 19, 20
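Note: peptides expressed intracellularly from a pBAD plasmid library in pooled LB shake-flask culture, induced with 0.3% L-arabinose, DNA abundance read by NGS, three biological replicates, DESeq2 with apeglm shrinkage.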

RRIRNRPPRLPRPRPRPESDPRP
shrunken log2 fold change: 0.648

RRIRNRPPRLPRPRPRPETCPRP
shrunken log2 fold change: 0.262

RRIRNRPPRLPRPRPRPETIPRP
shrunken log2 fold change: -0.0777

RRIRNRPPRLPRPRPRPEVIPRP
shrunken log2 fold change: 0.00635

RRIRNRPPRLPRPRPRPEVPPRP
shrunken log2 fold change: 0.095

RRIRNRPPRLPRPRPRPEYMPRP
shrunken log2 fold change: -0.0146

RRIRNRPPRLPRPRPRPFDEPRP
shrunken log2 fold change: -0.305

RRIRNRPPRLPRPRPRPFDRPRP
shrunken log2 fold change: 0.0368

RRIRNRPPRLPRPRPRPFHNPRP
shrunken log2 fold change: -0.12

RRIRNRPPRLPRPRPRPFIWPRP
shrunken log2 fold change: -0.741

RRIRNRPPRLPRPRPRPFIYPRP
shrunken log2 fold change: -0.856

RRIRNRPPRLPRPRPRPFLGPRP
shrunken log2 fold change: -0.00194

RRIRNRPPRLPRPRPRPFNWPRP
shrunken log2 fold change: -0.123

RRIRNRPPRLPRPRPRPFRDPRP
shrunken log2 fold change: 0.0452

RRIRNRPPRLPRPRPRPFSMPRP
shrunken log2 fold change: -0.00235

RRIRNRPPRLPRPRPRPFVGPRP
shrunken log2 fold change: -0.182

RRIRNRPPRLPRPRPRPFVMPRP
shrunken log2 fold change: -0.0984

RRIRNRPPRLPRPRPRPFWVPRP
shrunken log2 fold change: 0.0863

RRIRNRPPRLPRPRPRPFYDPRP
shrunken log2 fold change: 0.18

RRIRNRPPRLPRPRPRPFYKPRP
shrunken log2 fold change: -0.575

RRIRNRPPRLPRPRPRPFYVPRP
shrunken log2 fold change: -0.181

RRIRNRPPRLPRPRPRPGCWPRP
shrunken log2 fold change: 0.55

RRIRNRPPRLPRPRPRPGDGPRP
shrunken log2 fold change: 0.292

RRIRNRPPRLPRPRPRPGDRPRP
shrunken log2 fold change: 0.0819

RRIRNRPPRLPRPRPRPGEIPRP
shrunken log2 fold change: 0.627

RRIRNRPPRLPRPRPRPGEKPRP
shrunken log2 fold change: -0.01

RRIRNRPPRLPRPRPRPGFDPRP
shrunken log2 fold change: 0.189

RRIRNRPPRLPRPRPRPGFKPRP
shrunken log2 fold change: -0.171

RRIRNRPPRLPRPRPRPGFVPRP
shrunken log2 fold change: 0.135

RRIRNRPPRLPRPRPRPGHCPRP
shrunken log2 fold change: -0.062

RRIRNRPPRLPRPRPRPGPFPRP
shrunken log2 fold change: 0.00962

RRIRNRPPRLPRPRPRPGREPRP
shrunken log2 fold change: 0.588

RRIRNRPPRLPRPRPRPGSKPRP
shrunken log2 fold change: 0.00175

RRIRNRPPRLPRPRPRPGSNPRP
shrunken log2 fold change: -0.0081

RRIRNRPPRLPRPRPRPGTNPRP
shrunken log2 fold change: -0.0826

RRIRNRPPRLPRPRPRPGWRPRP
shrunken log2 fold change: 0.564

RRIRNRPPRLPRPRPRPGYVPRP
shrunken log2 fold change: -0.077

RRIRNRPPRLPRPRPRPHAYPRP
shrunken log2 fold change: 0.00658

RRIRNRPPRLPRPRPRPHCRPRP
shrunken log2 fold change: 0.00914

RRIRNRPPRLPRPRPRPHDRPRP
shrunken log2 fold change: -0.146

RRIRNRPPRLPRPRPRPHDSPRP
shrunken log2 fold change: -0.0662

RRIRNRPPRLPRPRPRPHERPRP
shrunken log2 fold change: -0.13

RRIRNRPPRLPRPRPRPHEYPRP
shrunken log2 fold change: -0.048

RRIRNRPPRLPRPRPRPHFGPRP
shrunken log2 fold change: -0.104

RRIRNRPPRLPRPRPRPHFHPRP
shrunken log2 fold change: -0.529

RRIRNRPPRLPRPRPRPHHAPRP
shrunken log2 fold change: -0.0601

RRIRNRPPRLPRPRPRPHIIPRP
shrunken log2 fold change: 0.0166

RRIRNRPPRLPRPRPRPHINPRP
shrunken log2 fold change: -1.02

RRIRNRPPRLPRPRPRPHIWPRP
shrunken log2 fold change: -0.0306

RRIRNRPPRLPRPRPRPHKFPRP
shrunken log2 fold change: -0.231

RRIRNRPPRLPRPRPRPHKRPRP
shrunken log2 fold change: -0.263

RRIRNRPPRLPRPRPRPHNCPRP
shrunken log2 fold change: -0.0167

RRIRNRPPRLPRPRPRPHRAPRP
shrunken log2 fold change: 0.264

RRIRNRPPRLPRPRPRPHRNPRP
shrunken log2 fold change: -0.176

RRIRNRPPRLPRPRPRPHVLPRP
shrunken log2 fold change: -0.245

RRIRNRPPRLPRPRPRPIACPRP
shrunken log2 fold change: -0.00434

RRIRNRPPRLPRPRPRPIAHPRP
shrunken log2 fold change: -0.0737

RRIRNRPPRLPRPRPRPIAQPRP
shrunken log2 fold change: -0.00164

RRIRNRPPRLPRPRPRPICYPRP
shrunken log2 fold change: -0.818

RRIRNRPPRLPRPRPRPIEAPRP
shrunken log2 fold change: 0.0895

RRIRNRPPRLPRPRPRPIGAPRP
shrunken log2 fold change: 0.235

RRIRNRPPRLPRPRPRPIHIPRP
shrunken log2 fold change: -0.58

RRIRNRPPRLPRPRPRPIHPPRP
shrunken log2 fold change: 0.135

RRIRNRPPRLPRPRPRPIIWPRP
shrunken log2 fold change: -0.139

RRIRNRPPRLPRPRPRPIKCPRP
shrunken log2 fold change: -0.0141

RRIRNRPPRLPRPRPRPILFPRP
shrunken log2 fold change: -0.396

RRIRNRPPRLPRPRPRPILSPRP
shrunken log2 fold change: -0.00144

RRIRNRPPRLPRPRPRPIMIPRP
shrunken log2 fold change: -0.363

RRIRNRPPRLPRPRPRPIMMPRP
shrunken log2 fold change: -0.103

RRIRNRPPRLPRPRPRPIMWPRP
shrunken log2 fold change: 0.137

RRIRNRPPRLPRPRPRPINQPRP
shrunken log2 fold change: -0.14

RRIRNRPPRLPRPRPRPINVPRP
shrunken log2 fold change: -0.0327

RRIRNRPPRLPRPRPRPIPYPRP
shrunken log2 fold change: -0.0122

RRIRNRPPRLPRPRPRPIREPRP
shrunken log2 fold change: -0.0204

RRIRNRPPRLPRPRPRPIRHPRP
shrunken log2 fold change: -0.0817

RRIRNRPPRLPRPRPRPIRRPRP
shrunken log2 fold change: -0.163

RRIRNRPPRLPRPRPRPISMPRP
shrunken log2 fold change: -0.0881

RRIRNRPPRLPRPRPRPIWTPRP
shrunken log2 fold change: -0.115

RRIRNRPPRLPRPRPRPIYHPRP
shrunken log2 fold change: -0.526

RRIRNRPPRLPRPRPRPIYPPRP
shrunken log2 fold change: -0.246

RRIRNRPPRLPRPRPRPKAHPRP
shrunken log2 fold change: 0.18

RRIRNRPPRLPRPRPRPKAIPRP
shrunken log2 fold change: -0.0372

RRIRNRPPRLPRPRPRPKDEPRP
shrunken log2 fold change: 0.536

RRIRNRPPRLPRPRPRPKFHPRP
shrunken log2 fold change: -0.078

RRIRNRPPRLPRPRPRPKFMPRP
shrunken log2 fold change: -0.0904

RRIRNRPPRLPRPRPRPKGTPRP
shrunken log2 fold change: 0.118

RRIRNRPPRLPRPRPRPKHEPRP
shrunken log2 fold change: 0.13

RRIRNRPPRLPRPRPRPKIWPRP
shrunken log2 fold change: 0.0854

RRIRNRPPRLPRPRPRPKIYPRP
shrunken log2 fold change: -0.0429

RRIRNRPPRLPRPRPRPKKKPRP
shrunken log2 fold change: 0.011

RRIRNRPPRLPRPRPRPKLAPRP
shrunken log2 fold change: 0.0921

RRIRNRPPRLPRPRPRPKLFPRP
shrunken log2 fold change: 0.371

RRIRNRPPRLPRPRPRPKLYPRP
shrunken log2 fold change: -0.289

RRIRNRPPRLPRPRPRPKMVPRP
shrunken log2 fold change: -0.13

RRIRNRPPRLPRPRPRPKSNPRP
shrunken log2 fold change: -0.294

RRIRNRPPRLPRPRPRPKVPPRP
shrunken log2 fold change: -0.129

RRIRNRPPRLPRPRPRPKWGPRP
shrunken log2 fold change: 0.147

RRIRNRPPRLPRPRPRPKWKPRP
shrunken log2 fold change: 0.0263

RRIRNRPPRLPRPRPRPKWWPRP
shrunken log2 fold change: 0.0325

RRIRNRPPRLPRPRPRPKYRPRP
shrunken log2 fold change: -0.0413

RRIRNRPPRLPRPRPRPLCAPRP
shrunken log2 fold change: 0.194

RRIRNRPPRLPRPRPRPLCFPRP
shrunken log2 fold change: -0.461

RRIRNRPPRLPRPRPRPLCTPRP
shrunken log2 fold change: -0.194

RRIRNRPPRLPRPRPRPLEGPRP
shrunken log2 fold change: 0.033

RRIRNRPPRLPRPRPRPLFHPRP
shrunken log2 fold change: -0.595

RRIRNRPPRLPRPRPRPLFPPRP
shrunken log2 fold change: 0.643

RRIRNRPPRLPRPRPRPLLIPRP
shrunken log2 fold change: 0.589

RRIRNRPPRLPRPRPRPLLMPRP
shrunken log2 fold change: -0.421

RRIRNRPPRLPRPRPRPLMAPRP
shrunken log2 fold change: 0.176

RRIRNRPPRLPRPRPRPLNKPRP
shrunken log2 fold change: -0.256

RRIRNRPPRLPRPRPRPLQAPRP
shrunken log2 fold change: -0.0119

RRIRNRPPRLPRPRPRPLRQPRP
shrunken log2 fold change: 0.154

RRIRNRPPRLPRPRPRPLSRPRP
shrunken log2 fold change: -0.124

RRIRNRPPRLPRPRPRPLTSPRP
shrunken log2 fold change: -0.0977

RRIRNRPPRLPRPRPRPLVTPRP
shrunken log2 fold change: 0.0322

RRIRNRPPRLPRPRPRPLWSPRP
shrunken log2 fold change: -0.0388

RRIRNRPPRLPRPRPRPLWWPRP
shrunken log2 fold change: 0.605

RRIRNRPPRLPRPRPRPMAFPRP
shrunken log2 fold change: -0.192

RRIRNRPPRLPRPRPRPMAHPRP
shrunken log2 fold change: -0.0456

RRIRNRPPRLPRPRPRPMAKPRP
shrunken log2 fold change: 0.0197

RRIRNRPPRLPRPRPRPMARPRP
shrunken log2 fold change: 0.0994

RRIRNRPPRLPRPRPRPMCWPRP
shrunken log2 fold change: 0.327

RRIRNRPPRLPRPRPRPMDWPRP
shrunken log2 fold change: -0.0484

RRIRNRPPRLPRPRPRPMELPRP
shrunken log2 fold change: -0.182

RRIRNRPPRLPRPRPRPMERPRP
shrunken log2 fold change: 0.019

RRIRNRPPRLPRPRPRPMGVPRP
shrunken log2 fold change: 0.165

RRIRNRPPRLPRPRPRPMISPRP
shrunken log2 fold change: -0.0707

RRIRNRPPRLPRPRPRPMKFPRP
shrunken log2 fold change: -0.000903

RRIRNRPPRLPRPRPRPMLHPRP
shrunken log2 fold change: -0.263

RRIRNRPPRLPRPRPRPMNYPRP
shrunken log2 fold change: -0.00918

RRIRNRPPRLPRPRPRPMPTPRP
shrunken log2 fold change: 0.257

RRIRNRPPRLPRPRPRPMQMPRP
shrunken log2 fold change: 0.0963

RRIRNRPPRLPRPRPRPMRCPRP
shrunken log2 fold change: -0.123

RRIRNRPPRLPRPRPRPMRPPRP
shrunken log2 fold change: 0.537

RRIRNRPPRLPRPRPRPMSCPRP
shrunken log2 fold change: -0.0294

RRIRNRPPRLPRPRPRPMTCPRP
shrunken log2 fold change: -0.0075

RRIRNRPPRLPRPRPRPMTHPRP
shrunken log2 fold change: -0.405

RRIRNRPPRLPRPRPRPMVDPRP
shrunken log2 fold change: -0.131

RRIRNRPPRLPRPRPRPMYDPRP
shrunken log2 fold change: 0.0456

RRIRNRPPRLPRPRPRPNCFPRP
shrunken log2 fold change: 0.0424

RRIRNRPPRLPRPRPRPNDSPRP
shrunken log2 fold change: -0.235

RRIRNRPPRLPRPRPRPNEIPRP
shrunken log2 fold change: 0.145

RRIRNRPPRLPRPRPRPNEKPRP
shrunken log2 fold change: -0.00172

RRIRNRPPRLPRPRPRPNENPRP
shrunken log2 fold change: 0.215

RRIRNRPPRLPRPRPRPNFQPRP
shrunken log2 fold change: -0.0807

RRIRNRPPRLPRPRPRPNGWPRP
shrunken log2 fold change: -0.0113

RRIRNRPPRLPRPRPRPNHIPRP
shrunken log2 fold change: -0.733

RRIRNRPPRLPRPRPRPNHSPRP
shrunken log2 fold change: -0.525

RRIRNRPPRLPRPRPRPNLRPRP
shrunken log2 fold change: -0.325

RRIRNRPPRLPRPRPRPNMCPRP
shrunken log2 fold change: -0.0592
